Broadly, the Km is the concentration of substrate that gives half-maximal velocity. In general, kcat refers to the maximal rate divided by the concentration of active sites. One may read the kcat/Km as the second-order rate constant that governs catalysis at low substrate concentration.

Data set [1] in a line: Proxy for plastic degradation [HPLC-UV] (µmol). The conditions noted are these: pH 7.
Substrate in data set [2]: pNP-C6
As to conditions: pH 8; 30 °C.

Substrate in data set [3]: p-NP-C4
As to conditions: pH 8.

Substrate in data set [4]: PET
The data set can be described thus: Proxy for plastic degradation [Absorbance (nm)]. As to conditions: pH 8.5.

Substrate in data set [5]: PBSA
Kind of data set: Proxy for plastic degradation [kcat/Km (catalytic efficiency)] (mM⁻¹s⁻¹). As to conditions: pH 8.2.

B1: unnamed (protein)
chain: MANPYERGPNPTDALLEASSGPFSVSEENVSRLSASGFGGGTIYYPRENNTYGAVAISPGYTGTEASIAWLGGRIASHGFVVITIDTITTLDQPDSRAEQLNAALNHMINRASSTVRSRIDSSRLAVMGHSMGGGGTPRLASQRPDLKAAIPLTPWHLNKNRSSVTVPTLIIGADLDTIAPVATHAKPFYNSLPSSISKAYLELDGATHFAPNIPNKIIGKYSVAWLKRFVDNDTRYTQFLCPGPRDGLFGEVEEYCSTCPF
As to B1, the “Proxy for plastic degradation” value in data set [1] turned out to be 0.6.

B2: unnamed (protein)
chain: MKKIYAVALFFLATSFAPNIIFAQCGDVTIESLTNPGPYEVATLTEADGLRNGPDYQGATVYYPTNATPPFASIAIVPGFTALPSSVEEWGPFYASHGIVTIIIGTNSLFDFPEERAVALIDALETMRQENTRSSSPLENQLDVDKFAVSGWSMGGGGAQRAAVLDNTIKGVVALCPWLPNASLNHDSPVLIFSGENDPTAPPAQHADLHYAATPNTTNKLLFEIENGNHSVANTPNGGNGAVGKIALSWLKLYVDENDCYCPLLTESLLVDPPAASKVLSSFECELLSVPDNSFAISVYPNPTHDFVNINSTNPVHFEVYSALGQRLLSGELTQSEKQIDFSNFAKGLYYVRLGNETVKIVRN
Turning to B2, in data set [2], the Km was 1370 µM, the kcat is 19.1 s⁻¹ and the kcat/Km came to 13900 M⁻¹ s⁻¹.

B3: unnamed (protein)
chain: MRKLYLFLFLTLISPISISIFHAQCTGATVESLTNPGPYTVATLSEADGVRNGPKYAGSTIYYPTNATPPYASIAIVPGFTAAPSSVQEWGPFYASHGIVAIIIGTNSLYDQPEARALALLDALETIKQENGRATSPLIGKLDVTKLAVSGWSMGGGGAQRAAVLDNTISAVVALCPYLTSPQLNHTVPVLIFSGQSDPTAPPSQHANVHYNTTPGTTNKLLFEVKNGNHSVANSPTGGGGAVGKLALSWLKIYLEKNDCYCSVLATAIVNSTTVSSKISQSYQCNNALGVVDSKTRFNLYPNPTKDFVQVNVREMASYQLSSSTGQIVLKGIVTSSKNQIDLSKLPAGVYYLQINGETIKVIKKQ
Take B3: in data set [2], the Km came out at 300 µM, the kcat came out at 8.9 s⁻¹ and the kcat/Km stood at 29700 M⁻¹ s⁻¹.

B4: unnamed (protein)
chain: MEMLEEHRCFEGWQQRWRHDSSTLNCPMTFSIFLPPPRDHTPPPVLYWLSGLTCNDENFTTKAGAQRVAAELGIVLVMPDTSPRGEKVANDDGYDLGQGAGFYLNATQPPWATHYRMYDYLRDELPALVQSQFNVSDRCAISGHSMGGHGALIMALKNPGKYTSVSAFAPIVNPCSVPWGIKAFSSYLGEDKNAWLEWDSCALMYASNAQDAIPTLIDQGDNDQFLADQLQPAVLAEAARQKAWPMTLRIQPGYDHSYYFIASFIEDHLRFHAQYLLK
B4: in data set [3] (37 °C), the Km was 700 µM, the catalytic constant (kcat) was found to be 0.36 s⁻¹ and the specificity constant (kcat/Km) came to 514 M⁻¹ s⁻¹.

B5: unnamed (protein)
chain: MLAVWDDTLAHPVRGRDRELATLTGLLDNTSGRRGTGMVVVGAPGTGKTTLLNALVEHAEGFQVLWAEGSAAESDVRFAGVEQLLRPLESLVSLLPDDRGRALRPVWGLPADDEGQVGSLAVPAAVSALLGLAARRQPVLCCVDSAHLLDSASLSALAFAARRAHHAGVVFVFAVDCTADTEVDTETSVWGELPRLRLGRLDDEAAHALLRDRLGASLPHDLADSLLDVGHGNPLALVELAESLTPEHLCGRAAPPSSPPPEGRLCRTLGHRLSALSEGAREVVALAGISEGLDEQLTCRVLPHHRSTLAEAVRSGLVVLDGDTVRTAADTVPSALLAALTPQDIVQAHHRMAEAAEAVGDRDRAVWHRAAIAMAPDPALVADLDDIAERARAAAAHATAAAASERAAALTSDTKERARRLVAAATDHWASGRPQRARTALRLAAPLSDSVLGARVSRLAGEIELRRGDPSVAATKLISTARQLASTHRTLAASALMLAGEASFVAGDNARYCLTAKDAALLCGPEEWPATRVVREHFTAMSATFRGEHSAAAAPLRSLVELGETTPDPTAKTLASQAAFTLGDAERSRDLALQAVVCARARGDESGVPWALVYAALSALLSGQLSAASTTALEGLQVARSLGQSNSAVDHVTVLAMLAALQGDEETALQRLQAANTELAERGLGRPSALATWAAACVDLAHDRPAEAFDRFRRMTVGRSRHCVPLRVMAVPHFVEAAVRCGEKEVARRSLVTFEHWANTTGGTARVALAHRCHALLAEQDGEAQERFTEAVRLHREADAPYDLAVTQLLYASHLRRSRRPKQARELLREAVQLFDDLGATHWVERASQELRACGHPGRGKPHLSRGLSPQQERIAQLVADGATNKEIATQLFISHRTVDHHLRNIFAKLDVRSRVQLAALFR
Turning to B5, the “Proxy for plastic degradation” value in data set [4] turned out to be 12.5 mM; in data set [5], 308.

B6: unnamed (protein)
chain: MPPHAARPGPAQNRRGRAMAVITPRRERSSLLSRALRFTAAAATALVTAVSLAAPAHAANPYERGPNPTDALLEARSGPFSVSEERASRFGADGFGGGTIYYPRENNTYGAVAISPGYTGTQASVAWLGERIASHGFVVITIDTNTTLDQPDSRARQLNAALDYMINDASSAVRSRIDSSRLAVMGHSMGGGGTLRLASQRPDLKAAIPLTPWHLNKNWSSVRVPTLIIGADLDTIAPVLTHARPFYNSLPTSISKAYLELDGATHFAPNIPNKIIGKYSVAWLKRFVDNDTRYTQFLCPGPRDGLFGEVEEYRSTCPF
Take B6: in data set [3] (60 °C), the Km is 673 µM, the catalytic constant (kcat) was determined as 483 s⁻¹ and the catalytic efficiency (kcat/Km) turned out to be 718000 M⁻¹ s⁻¹.

Values taken from the PETadex activity labels.
